The target in the assay is C3aR1 (C3a receptor) on mouse pancreatic islet cells (mouse) (UniProt O09047). Briefly: cell-based or functional assay.
Chain of C3aR1 (C3a receptor) on mouse pancreatic islet cells (mouse) (O09047 whole entry): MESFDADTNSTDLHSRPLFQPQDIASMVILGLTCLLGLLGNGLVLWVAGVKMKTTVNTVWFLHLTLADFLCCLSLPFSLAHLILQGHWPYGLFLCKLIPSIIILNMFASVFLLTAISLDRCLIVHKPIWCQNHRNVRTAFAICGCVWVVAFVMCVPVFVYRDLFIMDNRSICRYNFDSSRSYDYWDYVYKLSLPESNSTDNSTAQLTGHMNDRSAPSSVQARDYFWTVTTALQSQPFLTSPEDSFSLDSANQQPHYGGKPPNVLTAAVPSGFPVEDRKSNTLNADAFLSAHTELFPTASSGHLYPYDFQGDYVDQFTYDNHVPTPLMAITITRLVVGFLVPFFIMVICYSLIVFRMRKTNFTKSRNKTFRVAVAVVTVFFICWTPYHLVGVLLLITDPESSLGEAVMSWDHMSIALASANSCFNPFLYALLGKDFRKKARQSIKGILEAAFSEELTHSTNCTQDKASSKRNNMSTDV

Take Recombinant C3a protein (ligand): the glucose-stimulated insulin secretion assay on isolated murine islets (enhancement of insulin secretion at high glucose) lay in the range of 30 to 40%.

Values taken from patent US20170072028A1.
